The Kd is the free concentration of one partner at which half of the binding sites on the other are occupied at equilibrium, for simple one-to-one binding. For orientation: koff means the first-order rate constant of dissociation. One may read the kon as the second-order rate constant of association.

For 3 substances, Kd, koff and kon results are on record in paper PMC11403483.

Assay [1] deals with recombinant PSG1 (pregnancy-specific glycoprotein 1) (human) (UniProt P11464). The assay is described as follows: SPR.
Sequence of recombinant PSG1 (pregnancy-specific glycoprotein 1) (human) (P11464 35-419): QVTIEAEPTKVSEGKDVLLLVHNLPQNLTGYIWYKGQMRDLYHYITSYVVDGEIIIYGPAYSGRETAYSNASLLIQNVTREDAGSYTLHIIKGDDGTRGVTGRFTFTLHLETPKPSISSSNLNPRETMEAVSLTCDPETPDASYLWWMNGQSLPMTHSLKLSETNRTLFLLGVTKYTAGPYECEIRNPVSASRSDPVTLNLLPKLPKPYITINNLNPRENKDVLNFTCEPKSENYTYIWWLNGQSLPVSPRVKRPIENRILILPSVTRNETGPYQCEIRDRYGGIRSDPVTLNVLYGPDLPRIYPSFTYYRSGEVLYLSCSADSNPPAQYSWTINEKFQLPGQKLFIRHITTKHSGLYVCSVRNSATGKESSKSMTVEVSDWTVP
Assay [2] addresses recombinant murine Psg23-myc-His (mouse). The assay is described as follows: BLI. (Biolayer interferometry detects binding as a change in optical thickness at a sensor tip.)

Sequence of recombinant mouse galectin 9 (O08573 whole entry): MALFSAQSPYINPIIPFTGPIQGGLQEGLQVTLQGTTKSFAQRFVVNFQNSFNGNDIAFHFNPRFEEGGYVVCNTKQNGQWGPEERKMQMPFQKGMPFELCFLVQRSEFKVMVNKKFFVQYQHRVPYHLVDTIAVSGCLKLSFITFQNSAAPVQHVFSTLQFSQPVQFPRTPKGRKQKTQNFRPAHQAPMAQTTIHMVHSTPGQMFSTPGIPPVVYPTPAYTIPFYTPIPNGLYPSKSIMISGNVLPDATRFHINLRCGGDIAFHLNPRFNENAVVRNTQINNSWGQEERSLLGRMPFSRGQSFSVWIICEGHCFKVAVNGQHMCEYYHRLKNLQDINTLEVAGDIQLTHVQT

As for “GAL-9 C-terminal carbohydrate recognition domain (domain or fragment)”, in assay [1], the equilibrium dissociation constant (Kd) amounted to 1.7 µM and the off-rate constant (koff) was 0.00415 s⁻¹.

On to “GAL-9 N-terminal carbohydrate recognition domain (domain or fragment)”, for which, in assay [1], the dissociation constant Kd stood at 5780 µM and the dissociation rate constant (koff) was 0.0106 s⁻¹.

As for “recombinant mouse galectin 9 (from UniProt O08573 1-353) (natural protein)”, in assay [2], the Kd worked out at 0.00228 µM, the koff came out at 0.00635 s⁻¹ and the kon was 2.79e+06 M⁻¹ s⁻¹.
